Source: patent EP4671282A1
Like-named read-outs stand apart in the source and are kept apart here.

How the values were obtained:
[1] = biological target: human BAFF (ACROBiosystems, BAF-H52D4) (human) (UniProt Q9Y275); assay: ELISA, test sample coated, His-tagged BAFF in solution
[2] = biological target: human IL-36R full-length protein stably expressed on CHO-K1 cells (human) (UniProt Q9HB29); assay: FACS, CHO-K1 cells overexpressing human IL-36R
[3] = biological target: human IL-36R full-length protein stably expressed on CHO-K1 cells (human) (UniProt Q9HB29); assay: FACS, CHO-K1 cells overexpressing human IL-36R; remark: listed apart in the source

Sequence of human IL-36R full-length protein stably expressed on CHO-K1 cells (human) (Q9HB29 20-575 limits assumed): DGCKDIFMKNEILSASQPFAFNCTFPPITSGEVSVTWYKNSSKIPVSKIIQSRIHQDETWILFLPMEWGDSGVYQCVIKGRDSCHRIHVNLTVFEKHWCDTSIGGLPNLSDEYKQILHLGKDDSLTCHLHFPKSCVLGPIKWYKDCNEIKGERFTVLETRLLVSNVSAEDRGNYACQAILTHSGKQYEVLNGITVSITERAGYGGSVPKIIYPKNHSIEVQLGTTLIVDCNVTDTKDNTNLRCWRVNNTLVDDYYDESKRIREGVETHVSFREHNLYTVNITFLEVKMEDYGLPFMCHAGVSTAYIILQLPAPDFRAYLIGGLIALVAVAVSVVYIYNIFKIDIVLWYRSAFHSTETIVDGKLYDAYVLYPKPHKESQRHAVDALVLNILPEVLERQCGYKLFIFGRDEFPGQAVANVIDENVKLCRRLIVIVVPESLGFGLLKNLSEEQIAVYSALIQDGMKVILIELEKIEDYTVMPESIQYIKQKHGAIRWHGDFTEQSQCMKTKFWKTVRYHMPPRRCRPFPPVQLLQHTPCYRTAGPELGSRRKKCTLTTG

EC50 [1]	Maximum MFI [2]	Maximum MFI [3]	Substance
21.5 nM	–	–	RCT-18, telitacicept (RC18, RemeGen) (Fc fusion)
–	77 MFI	47 MFI	hIgG1 (antibody)
–	76 MFI	–	hIgG4 (antibody)
